The target of the data set is Cy5-S15(T79C), 30S ribosomal protein S15 (Escherichia coli, UniProt P0ADZ4 1-89, T79C). As to the kind of experiment: single-molecule FRET (ZMW); pre-folded; >80% of molecules bind stably; read-out is H20-H22 closure, S15 label in this assay not stated; 50 mM Tris pH 7.5, 14 mM MgCl2, 20 mM NaCl, 150 mM KCl, 0.04 mM EDTA, 40 ug/ml BSA, 0.01% Triton X-100, 2 mM spermidine, 1 mM putrescine; 20 C unless stated; 0.

These results are taken from PMC6269517.

B1: 85 nt minimal 3-way junction (p0099A/B/C) (structured_RNA)
RNA 1: GGCGCACGCAGGCGGUUUGCCG
RNA 2: CGGCAAGCUUGAGUCUCGUAGAGGGGGGU
RNA 3: GCCCCCUGGACGAAGACUGACGCUCAGGUGCGCC
On to B1, for which the binding result is on record as “binds”.
